Experimental data from US20260209316A1 (US Dept. of Health and Human Services, published 2026).

Key:
[1] = target: T1, full-length Sudan GP (GPFL) (Sudan virus (SUDV), UniProt Q7T9D9 33-650); test: BLI, Fab, pH 5.3
T1 construct: also called Sudan GPFL; GP(S)FL
T1 sequence: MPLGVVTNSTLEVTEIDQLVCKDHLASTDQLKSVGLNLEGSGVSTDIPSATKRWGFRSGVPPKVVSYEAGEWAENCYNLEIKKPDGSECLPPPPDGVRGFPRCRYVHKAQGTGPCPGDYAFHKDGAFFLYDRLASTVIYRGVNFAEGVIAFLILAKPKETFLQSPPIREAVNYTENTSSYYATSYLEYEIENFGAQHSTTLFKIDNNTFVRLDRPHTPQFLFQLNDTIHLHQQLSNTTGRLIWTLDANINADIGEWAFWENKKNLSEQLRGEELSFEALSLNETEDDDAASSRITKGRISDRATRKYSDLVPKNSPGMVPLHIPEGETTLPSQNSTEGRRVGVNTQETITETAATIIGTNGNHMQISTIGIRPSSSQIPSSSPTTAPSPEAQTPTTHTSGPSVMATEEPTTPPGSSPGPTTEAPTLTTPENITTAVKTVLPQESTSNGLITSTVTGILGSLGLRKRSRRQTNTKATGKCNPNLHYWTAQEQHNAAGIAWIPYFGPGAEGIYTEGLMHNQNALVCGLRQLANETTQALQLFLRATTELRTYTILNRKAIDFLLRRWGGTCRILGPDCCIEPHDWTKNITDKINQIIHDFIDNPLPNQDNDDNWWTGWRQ

[2] = target: T1, full-length Sudan GP (GPFL); test: BLI, Fab, pH 7.4
[3] = target: T1, full-length Sudan GP (GPFL); test: BLI, Fab, pH 5.3; remark: listed apart in the source
[4] = target: T1, full-length Sudan GP (GPFL); test: BLI, Fab, pH 7.4; remark: listed apart in the source

B1: Fab generated from 541S (Fab, V domains shown)
VH: QVQLVQSGAEVKKPGASVKVSCKASGYTFTNYAITWVRQAPGQGLEWMGWISAFNGQINYAQKFQGRVAMTTDTSTSTAYMELRSLRSDDTAVYYCARAPPMWFSGAKFDYWGQGTLVTVSS
VL: QSVLTQPPSVSGTPGQRVTISCSGSSSNIGSNTVNWYQQLPGTAPKLLIYSNDQRPSGVPDRFSGSKSGTSASLAISGLRSEDEADYYCAAWDETLRRVFGGGTRLTVL
notes: also called 541S Fab
B1 was tested, and the Kd [1] was 44.3 nM, the koff [1] was 0.000322 s⁻¹ and the kon [1] was 7260 M⁻¹ s⁻¹. The Kd [2] was 39.5 nM, the koff [2] was 0.000482 s⁻¹ and the kon [2] was 12200 M⁻¹ s⁻¹.

B2: Fab generated from 335S (Fab, V domains shown)
VH: EVQLVESGGGVVQPGRSLRLSCAASGFSFSNYAMHWVRQAPGKGLEWVAVTWYDGSSKYHADSVKGRFTISRDNSKNTLYLQMNSLRAEDTAVYYCARWGMGIVASPGNVLNYYYFMDVWGQGTTVIVSS
VL: SYELTQPPSVSVSPGQTARITCSGNPLPKKHTYWYQQKPGQAPVLMIYKDSERPSRIPERFSGSSSGTTVTLTISGVQAEDEADYYCQSADSTGIVVFGGGTKLTVL
notes: also called 335S Fab
Binder B2 has a Kd [3] of 12.6 nM, a koff [3] of 0.000352 s⁻¹ and a kon [3] of 27800 M⁻¹ s⁻¹. The Kd [4] was 5.6 nM, the koff [4] was 0.000496 s⁻¹ and the kon [4] was 88500 M⁻¹ s⁻¹.

B3: Fab generated from 573S (Fab, V domains shown)
VH: EVQLVESGGGLVKPGGSLRLSCAASGFTFSSYTMNWVRQAPGKGLEWVSCIRSSSSDKYYADSVKGRFTISRDNTKNSLYLQMNSLRADDTAVYYCARDLGGANNRYYFDYGMDVWGQGTTVTVSS
VL: EIVMTQSPATLSVSPGGRATLSCRASQSVYTNLAWYQQKPGQAPRLLIYDASTRATGIPARFSGSGSGTEFTLTISSLQCEDFAVYYCQHYNNWPLYTFGQGTKLEIK
notes: also called 573S Fab
Binder B3 has a Kd [1] of 9.27 nM, a koff [1] of 0.000105 s⁻¹ and a kon [1] of 11300 M⁻¹ s⁻¹. For the same binder, the Kd [2] was 24.1 nM, the koff [2] was 0.000252 s⁻¹ and the kon [2] was 10500 M⁻¹ s⁻¹.

B4: Fab generated from 315S (Fab, V domains shown)
VH: EVQLVESGGGVVQPGRSLRLSCAASGFTFKTYTMHWVRQAPGKGLEWVAVITDDGVNKKYADSVKGRFTISRDNSKNTLYLQMNSLRLEDTAVYYCARSVVVLAAYPLDYWGQGTMVTVSS
VL: DIQMTQSPSSLSASVGDRVTITCRASQTISTYLHWYQQRPGKAPKLLIYAASSLQSGVPSRVSGSGSGTDFTLTITSLQPEDFATYYCLQTYSLPLTFGGGTNVEIK
notes: also called 315S Fab
For B4, the Kd [3] was 4.26 nM, the koff [3] was 8.93e-05 s⁻¹ and the kon [3] was 21000 M⁻¹ s⁻¹. It also gave a Kd [4] of 8.37 nM, a koff [4] of 0.000303 s⁻¹ and a kon [4] of 36200 M⁻¹ s⁻¹.

B5: Fab generated from 578S (Fab, V domains shown)
VH: EVQLVESGGGVVQPGRSLRLSCAASGFTFSSYELHWVRQAPGKGLEWVAVISYDGSSKYYADSLKGRFTISRDNSKNTLSLQMNSLRAEDTAMYYCVRQSEAYCSDGRCDWRRALDIWGQGTMVTVSP
VL: DIQMTQSPSSLSASVGDRVTITCQASQDIKNYLNWYQQKPGKAPKLLIYDVSKLETGVPSRFSGSGSGTDFSFTISSLQPEDIATYYCQQYDNLPSYTFGQGTKLEIK
notes: also called 578S Fab
In the case of B5, the Kd [3] is reported as 334 nM, the koff [3] is reported as 0.000695 s⁻¹ and the kon [3] is reported as 2100 M⁻¹ s⁻¹. For the same binder, the Kd [4] was 97.1 nM, the koff [4] was 0.000404 s⁻¹ and the kon [4] was 4200 M⁻¹ s⁻¹.

B6: Fab generated from 203S (Fab, V domains shown)
VH: QVQLVQSGAEVKKPGSSVKVSCKASGGTFSSYAISWVRQAPGQGLEWLGRILPALGLANYAQKYQDRVKITADKSTSTAYMELSRLGSEDTAVYYCARDRWVGAARRGQYFDYWGQGTQVTVSS
VL: DIQMTQSPATLSASVGDRVTITCRASQSIGTWLAWYQQKPGKAPKLLIYDASSLESGVPPRFSGSGSETEFTLTISSLQPDDFATYYCHQYKSYSYTFGQGTKLEIK
notes: also called 203S Fab
B6 showed a Kd [3] of 118 nM, a koff [3] of 0.00046 s⁻¹ and a kon [3] of 3880 M⁻¹ s⁻¹. The Kd [4] was 26.1 nM, the koff [4] was 0.000376 s⁻¹ and the kon [4] was 14400 M⁻¹ s⁻¹.

B7: Fab generated from 382S (Fab, V domains shown)
VH: QVQLVQSGAEVKKPGSSVKVSCKASGGTFSNYGISWVRQAPGQGLEWMGRNIPIIGIANYAQKFQDRVTITADKSTSTVFMELRSLRYEDTAVYYCARDPLAARRGNWFDPWGQGTLVTVSS
VL: DIQMTQSPSTLSASVGDRVTITCRASQSVSSWLAWYQQKPGKAPKLLIYDASTLQSGVPSRFSGSGSGTEFTLTISSLQPDDFATYYCQQYNSYSYTFGQGTKLEIK
notes: also called 382S Fab
With B7 the Kd [3] was 31.3 nM, the koff [3] was 0.000452 s⁻¹ and the kon [3] was 14500 M⁻¹ s⁻¹. For the same binder, the Kd [4] was 26 nM, the koff [4] was 0.000422 s⁻¹ and the kon [4] was 16200 M⁻¹ s⁻¹.

B8: Fab generated from 377S (Fab, V domains shown)
VH: QVQLVQSGAEVKKPGSSVKVSCKASGGTFSNYAINWVRQAPGQGLEWMGRTIPFLGLTNYAENFQARVTITADKSTGTSYMQLSSLRSEDTAVYFCAKAATSGWSPFDNWGQGTLVTVSS
VL: EIVLTQSPGTLSLSPGERATLSCRASQSISSSYFGWYQQKPGQAPRLLIYGASRRAAGIPDRFSCSGSGTDFTLTISRLEPEDFGVYYCQQYGSSPTFGQGTKVEIK
B8 was tested, and the Kd [3] was 63.7 nM, the koff [3] was 0.000571 s⁻¹ and the kon [3] was 8970 M⁻¹ s⁻¹. For the same binder, the Kd [4] was 36.7 nM, the koff [4] was 0.000631 s⁻¹ and the kon [4] was 17200 M⁻¹ s⁻¹.

B9: Fab generated from 365S (Fab, V domains shown)
VH: EVQLVESGGGLVQPGGSLRLSCAASGLTFSAYEMNWVRQAPGKGLEWVSHITTSGSAIYYADSVKGRFTISRDNAKNSLHLQMNRLRADDTAVYFCARDSTIVQCSGTSCHVSTYSYMDVWGKGTTVTVSS
VL: EIVLTQSPATLSLSPGERATLSCRASQSVTTYLAWYQHKPGQAPRLLIYDASKRATGIPARFSGSGSGTDFTLTISSLEPEDFAVYHCQQRSSWPPITFGQGTRLEIK
notes: also called 365S Fab
For B9, the Kd [3] was 57.7 nM, the koff [3] was 0.00362 s⁻¹ and the kon [3] was 62800 M⁻¹ s⁻¹. It also gave a Kd [4] of 102 nM, a koff [4] of 0.00171 s⁻¹ and a kon [4] of 16800 M⁻¹ s⁻¹.

B10: Fab generated from 338S (Fab, V domains shown)
VH: EVQLVESGGGVVQPGRSLRLSCAASGFTFSQYGMHWVRQAPGKGLECVAVIWFDGSKKYYGDSVKGRFTISRDNSKNTLYLQMNSLRAEDTAVYFCARESLYYYDSGGHYYERGRIDYWGQGTLVTVSS
VL: DIQMTQSPSSLSASVGDRVTITCRASQDISNFLAWFQQKPGKAPKSLIYAASSLLSGVPSKFSGSGSGTDFTLTISSLQPEDFATYYCQQYNSYPPTFGQGTKLEIK
Work on B10 yielded a Kd [3] of 23.7 nM, a koff [3] of 0.000418 s⁻¹ and a kon [3] of 17600 M⁻¹ s⁻¹. For the same binder, the Kd [4] was 27.4 nM, the koff [4] was 0.000632 s⁻¹ and the kon [4] was 23100 M⁻¹ s⁻¹.

B11: Fab generated from 523S (Fab, V domains shown)
VH: QVQLVQSGAELKKPGASVKVSCKASGYTFSDHYVHWVRQAPGQGLEWMGRINPNSGGTNYAQRFLGRVTMTRDASISTAYLDLSSLRSDDTAVYYCARSSSSWSGHYYYYMDVWGKGTTVTVSS
VL: QSVLTQPPSVSAAPGQRVTISCSGSTSNIASNFVSWYQQLPGTAPKLLIYDNHKRPSGIPDRFSGSKSGTSATLGITGLQTGDEADYYCGTWDSSLSAGVFGGGTKVTVL
notes: also called 523S Fab
Binder B11 has a Kd [1] of 1.58 nM, a koff [1] of 0.000103 s⁻¹ and a kon [1] of 65400 M⁻¹ s⁻¹. For the same binder, the Kd [2] was 1.61 nM, the koff [2] was 0.000148 s⁻¹ and the kon [2] was 91900 M⁻¹ s⁻¹.

B12: Fab generated from 285S (Fab, V domains shown)
VH: QVQLVQSGAEVKKPGSSVKVSCKASGGTFSTYAITWVRQAPGQGLEWMGRIIPILRVANYAQKFQGRVTITADSSTSTAYMELSSLRSEDTAVYYCANLLAYCGGDCRSDYWGQGTLVTVSS
VL: EIVLTQSPGTLSLSPGERATLSCRASQSVKNSYLAWYHQKPGQAPRLLIYGASSRATGIPDRFSGSGSGTDFTLTISRLEPEDFAVYYCQQYGSSLWTFGQGTKVDVK
Work on B12 yielded a Kd [3] of 18.2 nM, a koff [3] of 0.000305 s⁻¹ and a kon [3] of 16800 M⁻¹ s⁻¹. It also gave a Kd [4] of 6.11 nM, a koff [4] of 0.000258 s⁻¹ and a kon [4] of 42200 M⁻¹ s⁻¹.

B13: Fab generated from 294S (Fab, V domains shown)
VH: QVQLQESGPGLVKPSQTLSLTCTVSGGSISSGGYHWSWIRQHPGKGLEWIGNIYYNGRTYYNPSLKSRVTISVDTSENEFSLKLSSVTAADTAVYYCARDRRRPRIGHDYGMDVWGQGTKVIVSS
VL: DIQMTQSPSSLSASVGDRVTISCRASQSISNFLNWYQQKPGQAPKLLIYTASNLQSGVPSRFSGSGSGTDFTLTISSLQPEDFATYYCQQIYNTGMYSFGQGTKLEIK
notes: also called 294S Fab
B13 was tested, and the Kd [1] was 2.18 nM, the koff [1] was 0.000377 s⁻¹ and the kon [1] was 173000 M⁻¹ s⁻¹. The Kd [2] was 4.3 nM, the koff [2] was 0.00135 s⁻¹ and the kon [2] was 314000 M⁻¹ s⁻¹.

B14: Fab generated from 528S (Fab, V domains shown)
VH: EVQLAESGGGVVQPGRSLRLSCAASGFTFNSYGMHWVRQAPGKGLEWVAVIWDDGSKKYYADSVKGRFTISRDNSKNTLFLQMNSLRAEDTAVYYCARETIMFTFGEVIVSSRDNYYMDVWGKGTTVTVSS
VL: EIVLTQSPATLSLSPGERATLSCRASQSVSNYLAWYQQKPGQAPRLLIYDASTRAIGIPARFSGVGSGTDFTLTISSLEPEDFAVYYCQQRSNWPPLTFGGGTKVEIK
notes: also called 528S Fab
For B14, the Kd [3] was 5.58 nM, the koff [3] was 4.65e-05 s⁻¹ and the kon [3] was 8330 M⁻¹ s⁻¹. The Kd [4] was 9.11 nM, the koff [4] was 0.000387 s⁻¹ and the kon [4] was 42500 M⁻¹ s⁻¹.

B15: Fab generated from 102S (Fab, V domains shown)
VH: EVQLVESGGGLVQPGGSLRLSCSASGFTFHSYDMNWARQAPGKGLEWVSEISSSGQSKNYADSVRGRFTISRDNAKNSLYLQINSLRSEDTAVYYCARVGFVAKFGSDFSITHGTYYLDYWGQGTLVTVSS
VL: QLVLTQSPATLSLSPGERATLSCRASQSVSNYLAWYQQKPGQAPRLLIYDASNRAPGVPARFSGSGSGTDFSLTISSLEPEDFAVYYCLQRSNWPPWTFGQGTKVEIK
Work on B15 yielded a Kd [4] of 91.2 nM, a koff [4] of 0.00504 s⁻¹ and a kon [4] of 55300 M⁻¹ s⁻¹.
